Laboratory results: patent publication US20070098719A1 (GITR, published 2007)

Columns and labels:
[1] = molecular target: T1, human GITR (hGITR), glucocorticoid-induced TNF receptor (UniProt Q9Y5U5 26-241); assay: SPR
T1 chain: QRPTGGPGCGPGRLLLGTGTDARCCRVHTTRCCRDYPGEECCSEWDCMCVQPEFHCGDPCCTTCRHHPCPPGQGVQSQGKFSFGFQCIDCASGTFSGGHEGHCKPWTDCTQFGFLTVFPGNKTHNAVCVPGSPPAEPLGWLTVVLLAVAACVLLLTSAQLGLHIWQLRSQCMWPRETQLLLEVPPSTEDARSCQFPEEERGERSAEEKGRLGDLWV

[2] = molecular target: T2, human GITR (hGITR), glucocorticoid-induced TNF receptor (human, UniProt Q9Y5U5 26-241); assay: FACS, L-M (mouse fibroblast) cells transfected with the GITR gene, 50 ul hybridoma supernatant
T2 construct: also called TNFRSF18
T2 sequence: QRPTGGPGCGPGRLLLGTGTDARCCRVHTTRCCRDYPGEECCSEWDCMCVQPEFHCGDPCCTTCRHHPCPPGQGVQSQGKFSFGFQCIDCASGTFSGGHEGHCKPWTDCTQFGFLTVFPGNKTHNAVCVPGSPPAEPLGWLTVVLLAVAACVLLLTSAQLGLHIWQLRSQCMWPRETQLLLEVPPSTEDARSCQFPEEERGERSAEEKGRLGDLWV
Procedure: FIG. 3 depicts a FACS analysis of L-M (mouse fibroblast) cells transfected with the GITR gene that were stained with 50 μl of supernatant fluid from GITR-expressing hybridoma cells. The GITR binding molecule stained GITR-transfected cells but not the untransfected L-M cells.

B1: 6C8 antibody (antibody, V domains shown)
VH: QVTLKESGPGILKPSQTLSLTCSFSGFSLSTSGMGVGWIRQPSGKGLEWLAHIWWDDDKYYNPSLKSQLTISKDTSRNQVFLKITSVDTADAATYYCARTRRYFPFAYWGQGTLVTVSS
VL: DIVMTQSQKFMSTSVGDRVSVTCKASQNVGTNVAWYQQKPGQSPKALIYSASYRYSGVPDRFTGSGSGTDFTLTINNVHSEDLAEYFCQQYNTDPLTFGAGTKLEIK
notes: also called anti-GITR
- Kd [1]: 1.1 nM
- binding result [2]: binds
